In the nanobody polyreactivity screen of Harvey et al. (2022):

assay: yeast display, Sf9 membrane polyspecificity reagent, FACS + sequencing; frameworks hold sequencing errors
How it was run: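 Polyreactivity labels are assigned by the sorting gate from which each nanobody was recovered. The gates were low and high (top ~1%), set on anti-HA fluorescence for expression and streptavidin fluorescence for reagent binding. Before sorting, galactose-induced (36–48 hours) yeast display cells were stained for 1 hour at 4 °C with 10% biotinylated, detergent-solubilized Sf9 membrane reagent.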

Sequence | polyreactivity (PSR sort gate)
QVQLVESGGGLVQAGGSLRLSCAASGFTFAYYAMGWYRPAPGKERELVAAISSGGSTDYADSVKGRFTISRDNAKNTVYLQMNSLKPEDTAVYYCNAVVVRLWYDYDYWGQGTQVTVSS | low polyreactivity
QVQLVESGGGLVQAGGSLRLSCAASGYTFPLYAMGWYTQAPGKERELVADINIGGASTYYADSVKGRFTISRDNAKNTVYLQMNSLKPEDTAVYDCAKEYYDGYFPTFEYDYWGQGTQVTVSS | low polyreactivity
QVQLVESGGGLVQAGGSLRLICAASGFIFRSYAMGWYRQAPGKEREFDAGINRRGGSTYYADSVKGRFTISRDNAKNSVYLQMNILKPEDTAVYYCAAVYYNRVDYWGQGTQVTVSS | high polyreactivity
QVQLVESGGGLVQAGGSLRLSCAASGSTFWFNAMGWYRQAPGKEREFVAAITWRGGSTYYSDSVKGRFTISRDNAKNTVYLQMNSLKPEDTAVYYCAAVTAYYYRRTYEYWGQGTQVTVSS | high polyreactivity
QVQLVESGGGLVQAGGSLRLSCAASGSTFARYAMGWYRQAPGKERELVAAISRSGSNTYYADSVKGRFTISRDNAKNTVYLQMNSLKPEDTAVYYCAAVQPGQRTVAYDYWGQGTLVTVSS | high polyreactivity
QVQLVESGGGLVQAGGSLRLSGAASGGTFSNYAMGWYRPAPGKEREVVAAIRWRGGNTYYADSVKGRFTISRDNAKNTVYLQMNSLKPEDTAVYYCAAQTHDYTRSVGTTAYDYWGQGTQVTVSS | low polyreactivity
QLQLVESRGGLVQAGGSLRLSCASSGFIFKQNAMGWYRQAPGNERELVAAISVSGGSTYYADSVKGRFTISRDNAKNTVYLQMNSLKPEYSAVYYCNTRDRGDVVTGLDYWGQGTQVTVSS | low polyreactivity
QVQLVESGGGLVQAGGSLRLSCAASGSTFIENAMGWYRQAPGKERELVAAINRGGTTYYADSVKGRFTISRDNAKNTVYLQMNSLKPEDTAVYYCAADDPSYANRFIHDYWGQGTHVTVSS | low polyreactivity
QFQLVESGGRLVQAGGSLRLSCAASGFTFNRYAMGSYRQAPGKGREFVAAITRRGGSTYYADSVKGRFTISRDNAKNTVYLQMNSLKPEDTAVYYCNVKPSARGSPLYDYWGQGTQVTVSS | high polyreactivity
QVQLVESGGGLVQAGGSLRLSCADSGSTFYRNAMGWYRQAPGKERELVASINNRGSTYYADSVKGRFTISRDNAKNTVYLQMNRLKPEDTAVYYFAATESWDYDYWGQGTQVTVSS | low polyreactivity
QVQLVESGGGLVQAGGSLRLTCAASGFTFFVYAMGWYRQAPGKERELVASITFRSGTTYYADSVKGRFTISRDNAKNTVYLQMNSLKPEDTAVYYCAADSRRSSRGYGYYYWGQGTQVTVSS | high polyreactivity
QVQLVESGGGLVQAGGSLRLSCAASGYIFGTYGMGWYRQAPGKERELVAGISRSGTSTYYADSVKGRFTISRDNAKNTVYLQMNSLKPEDTAVYYCAAVSRTRYEYWGQGTQVTVSS | high polyreactivity
QVQLVESGGGLVHAGGSLRLSCAASGSIFVRNDMGWYRPAPGKERELVAVITRSAGGTYYADSVKGRFTISRDTAKNSVYFQMNSLKPEDTAFYYCAASPSTPNKYGSWGHGTQVTVSS | high polyreactivity
QVQLVESGGGLVQAGGSLRLSCAASGFIFSYYAMGWYRQAPGKERELVAAITQSGGGTYYADSVKGRFTISRDNAKNTVYLQMNSLKPEDTAVYYCAKSRRVYSREGWFHYRAYGYWGQGTQVTVSS | high polyreactivity
QVQLVESGGGLVQAGGSLRLSCAASGSIFRGNAMGWYRQAPGKERELVAAISWSGASTYYADSVKGRFTISRDNAKNTVYLQMNSLKPEDTAVYYCAAVQWTGYPFDYWGQGTQVTVSS | high polyreactivity
QVQLQESGGGLVQAGGSLRLSCAPSGSISRYYDMGWYRQAPGKEREYVAGISGGAITYYADSVKGRFTISRDNAKNTVYLQMNSLKPEDTAVYYCAADTCVYQYHSYWGQGTQVTVSS | low polyreactivity
QVQLVESGGGLVQAGGSLRLSCAASGRTFVFYAMGWYRQAPGKERELVAAISSSGGSTYYADSVKGRFTISRDNAKNTVYLQMNSLKPEDTAVYYCNADFYSVGSQYGYWGQGTQVTVSS | high polyreactivity
QVQLEESGGGLVQAGGSLRLSCAASGRTFGYYAMGWYRQAPGKERELVAAISTRSGSTYYADSVKGRFTISRDNAKNTVYLQMISLKPEDTAVYYCAADSYPDYDYWGQGTQVTVSS | low polyreactivity
QVQLVESGGGLVQAGGSLRLSCAASGIILSDNAMGWYRQAPGKEREFVAAITGSCGSTYYADSVKGRFTISRDYAKKTDDLQMNSLKPEDTAVYYCSADGPFGYYYGHYGYWGQVTQVTVSS | low polyreactivity
QVQLVESGGGLVQAGGSLRLSCAASGITSGTYAMGWYRQAPGKERELVAGISRSVTRTYYADSVKGRFTISRDNAKNTVYLQMNSLKPEDTAVYYCNTYVVRRPGYGYWGQGTQVTVSS | high polyreactivity
QVQLVESGGGLVQAGGSLRLSCAASGIIFAYYALGWYRQAPGKERELVAGITQSGGDTYYADSVKGRFTISRDNAKNTVYLQLNSLKPEDTAVYYCAAGWWGYDYWGQGTQVTVSS | high polyreactivity
QVQLVESGGGLVQAGGSLRLSCAASRIIFTHNAMGWYRQAPGKERELVAAISWSGGSTYYADSVNGRFTISRDNAKNTVYIEMNSLKPEDTAVYYCAAPYFTYGQDDDDYWGQGTQVTVSS | low polyreactivity
QVQLVESGGGLVQAGGSLRLSCAASGSTFRGNAMGWYRQAPGKERELVAAISRRGGSTNYADSVKGRFTISRDNAKNTVYLQMNSLKPEDTAVYYCNKGDYRSAYRHIEYGYWGQGTQVTVSS | low polyreactivity
QVQLVESGGGLVQAGGSLRLSCAASGRIFVGNAMGWYRQAPGKERELVAAISRSGGRTYYADSVKGRFTISRDNAKNSVYLQMNSLKPEDTAVYYCAAVSLSGRYGDYDYWGQGTQVTVSS | high polyreactivity
QVQLEESGGGLVQAGGSLRLSCAASGFNFDVYAMGWYRQAPGKERELVAAISRSGGSTYYADSVKGRFTISRDNAKNTFYLQMNSLKPEDTAVYYCATDLLNNVDYDYWGQGTQVTVSS | low polyreactivity
QVQLVESGGGLVQAGGSLRLSCAASGRTFYSYAMGWYIQAPGKERELVATINRGSGTNYADSVKGRFTISRDNAKNSVYLQMNSLKPEDSAVYSCAVDRRVLWYHMDYWGQGTKVTVSS | high polyreactivity
QVQLVESGGGLVQAGGSLRLSCAASGIIFYVYAMGWYRQAPGKERELVAAISTSGGSTYYADSVKGRFTISRDNAKNTVYLQMNSLKPEDTAVYYCAADRPARSPKGSVDYWGQGTQVTVSS | high polyreactivity
QVQLQESGGGLVQAGGSLRLSCAASGSITRYYDMGWYRQAPGKEREFVAGISGGAITYYADSLKGRFTISRDNAKNTVYLQMNSLKPEDTAVYYCAADTGVYQYHSYWGQGTQVTVSS | low polyreactivity
QVQLVESGGGLVQAGGSLRLSCGASGSIFYGYAMGWYRQAPGKERELVASITYSGGSTYYADSVKGRFTISRDNAKNTVYLQMNSLKPEDTTVYYCAVIGYHYSAISPASQTRQGYDYWGQGTQVTVSS | low polyreactivity
QVQLVESGGGLVQAGGSLRLSCAASGRIFGRYAMGWYRQAPGKERELVAAITSSGGSTYYADSVKGRFTISRDNAKNTVYLQMNSLKPEDTAVYYCAADSQYKYDYWGQGTQVTVSS | high polyreactivity
